Read-outs that look alike come from different tables or passages of the source.
Experiments:
[1] = test system: HCoV-OC43 gRNA and sgRNA; assay type: binding; settings: for target (unweighted spectral count, OC43 Probe II capture) / target (unweighted spectral count): tested against no-probe control; for target (unweighted spectral count, OC43 Probe II capture): FDR<10%; for target (unweighted spectral count, OC43 Probe II) / background (unweighted spectral count, no-probe control): type n_48_v, 48 hpi; for target (unweighted spectral count, OC43 Probe II): OC43 Probe II capture on infected cells; for background (unweighted spectral count, no-probe control): no-probe control on infected cells; for target (unweighted spectral count): OC43 Probe II, infected cells; for target (spectral count) / background (spectral count): type s_36_m, Probe II; for target (spectral count): HCoV-OC43-infected HCT-8 cells; for background (spectral count): uninfected-probe control
[2] = test system: gRNA of HCoV-OC43; assay type: binding; settings: type n_48_v: 48 hours post-infection; for target (spectral count, OC43 Probe I RNP capture): infected cells, unweighted spectral count; for background (spectral count, no-probe control): no-probe control on infected cells

Row | Molecule | target (unweighted spectral count, OC43 Probe II capture) ([1]; 36 hpi, type n_36_v) | target (unweighted spectral count, OC43 Probe II) [1] | background (unweighted spectral count, no-probe control) [1] | target (spectral count, OC43 Probe I RNP capture) [2] | background (spectral count, no-probe control) [2] | target (unweighted spectral count) ([1]; 12 hpi (type n_12_v)) | target (unweighted spectral count) ([1]; 24 hpi (type n_24_v)) | target (unweighted spectral count, OC43 Probe II capture) ([1]; 24 hpi, type n_24_v) | target (spectral count) ([1]; 36 hpi) | background (spectral count) ([1]; 36 hpi)
1 | EIF2AK2 (protein, UniProt P19525 2-551, looked up) Interferon-induced, …: AGDLSAGFFMEELNTYRQKQGVVLKYQELPNSGPPHDRRFTFQVIIDGREFPEGEGRSKKEAKNAAAKLAVEILNKEKKAVSPLLLTTTNSSEGLSMGNYIGLINRIAQKKRLTVNYEQCASGVHGPEGFHYKCKMGQKEYSIGTGSTKQEAKQLAAKLAYLQILSEETSVKSDYLSSGSFATTCESQSNSLVTSTLASESSSEGDFSADTSEINSNSDSLNSSSLLMNGLRNNQRKAKRSLAPRFDLPDMKETKYTVDKRFGMDFKEIELIGSGGFGQVFKAKHRIDGKTYVIKRVKYNNEKAEREVKALAKLDHVNIVHYNGCWDGFDYDPETSDDSLESSDYDPENSKNSSRSKTKCLFIQMEFCDKGTLEQWIEKRRGEKLDKVLALELFEQITKGVDYIHSKKLIHRDLKPSNIFLVDTKQVKIGDFGLVTSLKNDGKRTRSKGTLRYMSPEQISSQDYGKEVDLYALGLILAELLHVCDTAFETSKFFTDLRDGIISDIFDKKEKTLLQKLLSKKPEDRPNTSEILRTLTVWKKSPEKNERHTC | 4 | 8 | 1 | 8 | 1 |  |  |  |  | 
2 | TOP1 (protein, UniProt P11387 2-765, looked up) DNA topoisomerase 1: SGDHLHNDSQIEADFRLNDSHKHKDKHKDREHRHKEHKKEKDREKSKHSNSEHKDSEKKHKEKEKTKHKDGSSEKHKDKHKDRDKEKRKEEKVRASGDAKIKKEKENGFSSPPQIKDEPEDDGYFVPPKEDIKPLKRPRDEDDADYKPKKIKTEDTKKEKKRKLEEEEDGKLKKPKNKDKDKKVPEPDNKKKKPKKEEEQKWKWWEEERYPEGIKWKFLEHKGPVFAPPYEPLPENVKFYYDGKVMKLSPKAEEVATFFAKMLDHEYTTKEIFRKNFFKDWRKEMTNEEKNIITNLSKCDFTQMSQYFKAQTEARKQMSKEEKLKIKEENEKLLKEYGFCIMDNHKERIANFKIEPPGLFRGRGNHPKMGMLKRRIMPEDIIINCSKDAKVPSPPPGHKWKEVRHDNKVTWLVSWTENIQGSIKYIMLNPSSRIKGEKDWQKYETARRLKKCVDKIRNQYREDWKSKEMKVRQRAVALYFIDKLALRAGNEKEEGETADTVGCCSLRVEHINLHPELDGQEYVVEFDFLGKDSIRYYNKVPVEKRVFKNLQLFMENKQPEDDLFDRLNTGILNKHLQDLMEGLTAKVFRTYNASITLQQQLKELTAPDENIPAKILSYNRANRAVAILCNHQRAPPKTFEKSMMNLQTKIDAKKEQLADARRDLKSAKADAKVMKDAKTKKVVESKKKAVQRLEEQLMKLEVQATDREENKQIALGTSKLNYLDPRITVAWCKKWGVPIEKIYNKTQREKFAWAIDMADEDYEF | 14 |  |  | 12 | 2 | 31 | 12 |  |  | 
3 | DKC1 (protein, UniProt O60832 2-514, looked up) H/ACA ribonucleoprotein …: ADAEVIILPKKHKKKKERKSLPEEDVAEIQHAEEFLIKPESKVAKLDTSQWPLLLKNFDKLNVRTTHYTPLACGSNPLKREIGDYIRTGFINLDKPSNPSSHEVVAWIRRILRVEKTGHSGTLDPKVTGCLIVCIERATRLVKSQQSAGKEYVGIVRLHNAIEGGTQLSRALETLTGALFQRPPLIAAVKRQLRVRTIYESKMIEYDPERRLGIFWVSCEAGTYIRTLCVHLGLLLGVGGQMQELRRVRSGVMSEKDHMVTMHDVLDAQWLYDNHKDESYLRRVVYPLEKLLTSHKRLVMKDSAVNAICYGAKIMLPGVLRYEDGIEVNQEIVVITTKGEAICMAIALMTTAVISTCDHGIVAKIKRVIMERDTYPRKWGLGPKASQKKLMIKQGLLDKHGKPTDSTPATWKQEYVDYSESAKKEVVAEVVKAPQVVAEAAKTAKRKRESESESDETPPAAPQLIKKEKKKSKKDKKAKAGLESGAEPGDGDSDTTKKKKKKKKAKEVELVSE |  | 9 | 1 | 6 | 1 |  |  |  |  | 
4 | ZNF326: host protein, UniProt Q5BKZ1 (protein, UniProt Q5BKZ1 1-582, looked up) DBIRD complex subunit ZNF326: MDFEDDYTHSACRNTYQGFNGMDRDYGPGSYGGMDRDYGHGSYGGQRSMDSYLNQSYGMDNHSGGGGGSRFGPYESYDSRSSLGGRDLYRSGYGFNEPEQSRFGGSYGGRFESSYRNSLDSFGGRNQGGSSWEAPYSRSKLRPGFMEDRGRENYSSYSSFSSPHMKPAPVGSRGRGTPAYPESTFGSRNYDAFGGPSTGRGRGRGHMGDFGSIHRPGIVVDYQNKSTNVTVAAARGIKRKMMQPFNKPSGTFIKKPKLAKPMEKISLSKSPTKTDPKNEEEEKRRIEARREKQRRRREKNSEKYGDGYRMAFTCSFCKFRTFEEKDIELHLESSSHQETLDHIQKQTKFDKVVMEFLHECMVNKFKKTSIRKQQTNNQTEVVKIIEKDVMEGVTVDDHMMKVETVHCSACSVYIPALHSSVQQHLKSPDHIKGKQAYKEQIKRESVLTATSILNNPIVKARYERFVKGENPFEIQDHSQDQQIEGDEEDEEKIDEPIEEEEDEDEEEEAEEVGEVEEVEEVEEVREGGIEGEGNIQGVGEGGEVGVVGEVEGVGEVEEVEELEEETAKEEPADFPVEQPEEN | 7 | 8 | 2 | 10 | 2 |  |  | 4 | 7 | 1
5 | KRT10 (protein, UniProt P13645 1-584, looked up) Keratin, type I cytoskeletal …: MSVRYSSSKHYSSSRSGGGGGGGGCGGGGGVSSLRISSSKGSLGGGFSSGGFSGGSFSRGSSGGGCFGGSSGGYGGLGGFGGGSFRGSYGSSSFGGSYGGIFGGGSFGGGSFGGGSFGGGGFGGGGFGGGFGGGFGGDGGLLSGNEKVTMQNLNDRLASYLDKVRALEESNYELEGKIKEWYEKHGNSHQGEPRDYSKYYKTIDDLKNQILNLTTDNANILLQIDNARLAADDFRLKYENEVALRQSVEADINGLRRVLDELTLTKADLEMQIESLTEELAYLKKNHEEEMKDLRNVSTGDVNVEMNAAPGVDLTQLLNNMRSQYEQLAEQNRKDAEAWFNEKSKELTTEIDNNIEQISSYKSEITELRRNVQALEIELQSQLALKQSLEASLAETEGRYCVQLSQIQAQISALEEQLQQIRAETECQNTEYQQLLDIKIRLENEIQTYRSLLEGEGSSGGGGRGGGSFGGGYGGGSSGGGSSGGGHGGGHGGSSGGGYGGGSSGGGSSGGGYGGGSSSGGHGGSSSGGYGGGSSGGGGGGYGGGSSGGGSSSGGGYGGGSSSGGHKSSSSGSVGESSSKGPRY |  | 22 | 3 | 14 | 3 |  |  |  |  | 
6 | LARP7: host protein, UniProt Q4G0J3 (protein, UniProt Q4G0J3 1-582, looked up) La-related protein 7: METESGNQEKVMEEESTEKKKEVEKKKRSRVKQVLADIAKQVDFWFGDANLHKDRFLREQIEKSRDGYVDISLLVSFNKMKKLTTDGKLIARALRSSAVVELDLEGTRIRRKKPLGERPKDEDERTVYVELLPKNVNHSWIERVFGKCGNVVYISIPHYKSTGDPKGFAFVEFETKEQAAKAIEFLNNPPEEAPRKPGIFPKTVKNKPIPALRVVEEKKKKKKKKGRMKKEDNIQAKEENMDTSNTSISKMKRSRPTSEGSDIESTEPQKQCSKKKKKRDRVEASSLPEVRTGKRKRSSSEDAESLAPRSKVKKIIQKDIIKEASEASKENRDIEISTEEEKDTGDLKDSSLLKTKRKHKKKHKERHKMGEEVIPLRVLSKSEWMDLKKEYLALQKASMASLKKTISQIKSESEMETDSGVPQNTGMKNEKTANREECRTQEKVNATGPQFVSGVIVKIISTEPLPGRKQVRDTLAAISEVLYVDLLEGDTECHARFKTPEDAQAVINAYTEINKKHCWKLEILSGDHEQRYWQKILVDRQAKLNQPREKKRGTEKLITKAEKIRLAKTQQASKHIRFSEYD | 7 | 9 | 1 | 6 | 1 |  |  |  | 7 | 1
7 | ADAR (protein, UniProt P55265 1-1226, looked up) Double-stranded RNA-specific …: MNPRQGYSLSGYYTHPFQGYEHRQLRYQQPGPGSSPSSFLLKQIEFLKGQLPEAPVIGKQTPSLPPSLPGLRPRFPVLLASSTRGRQVDIRGVPRGVHLRSQGLQRGFQHPSPRGRSLPQRGVDCLSSHFQELSIYQDQEQRILKFLEELGEGKATTAHDLSGKLGTPKKEINRVLYSLAKKGKLQKEAGTPPLWKIAVSTQAWNQHSGVVRPDGHSQGAPNSDPSLEPEDRNSTSVSEDLLEPFIAVSAQAWNQHSGVVRPDSHSQGSPNSDPGLEPEDSNSTSALEDPLEFLDMAEIKEKICDYLFNVSDSSALNLAKNIGLTKARDINAVLIDMERQGDVYRQGTTPPIWHLTDKKRERMQIKRNTNSVPETAPAAIPETKRNAEFLTCNIPTSNASNNMVTTEKVENGQEPVIKLENRQEARPEPARLKPPVHYNGPSKAGYVDFENGQWATDDIPDDLNSIRAAPGEFRAIMEMPSFYSHGLPRCSPYKKLTECQLKNPISGLLEYAQFASQTCEFNMIEQSGPPHEPRFKFQVVINGREFPPAEAGSKKVAKQDAAMKAMTILLEEAKAKDSGKSEESSHYSTEKESEKTAESQTPTPSATSFFSGKSPVTTLLECMHKLGNSCEFRLLSKEGPAHEPKFQYCVAVGAQTFPSVSAPSKKVAKQMAAEEAMKALHGEATNSMASDNQPEGMISESLDNLESMMPNKVRKIGELVRYLNTNPVGGLLEYARSHGFAAEFKLVDQSGPPHEPKFVYQAKVGGRWFPAVCAHSKKQGKQEAADAALRVLIGENEKAERMGFTEVTPVTGASLRRTMLLLSRSPEAQPKTLPLTGSTFHDQIAMLSHRCFNTLTNSFQPSLLGRKILAAIIMKKDSEDMGVVVSLGTGNRCVKGDSLSLKGETVNDCHAEIISRRGFIRFLYSELMKYNSQTAKDSIFEPAKGGEKLQIKKTVSFHLYISTAPCGDGALFDKSCSDRAMESTESRHYPVFENPKQGKLRTKVENGEGTIPVESSDIVPTWDGIRLGERLRTMSCSDKILRWNVLGLQGALLTHFLQPIYLKSVTLGYLFSQGHLTRAICCRVTRDGSAFEDGLRHPFIVNHPKVGRVSIYDSKRQSGKTKETSVNWCLADGYDLEILDGTRGTVDGPRNELSRVSKKNIFLLFKKLCSFRYRRDLLRLSYGEAKKAARDYETAKNYFKKGLKDMGYGNWISKPQEEKNFYLCPV |  | 11 | 2 | 11 | 2 |  |  |  |  | 
